Assay results published in US20130280162A1.

Target: human uPAR on 293/uPAR cells (human) (UniProt Q03405)
Assay: cell-based or functional assay

human uPAR on 293/uPAR cells (human), sequence (Q03405 23-305): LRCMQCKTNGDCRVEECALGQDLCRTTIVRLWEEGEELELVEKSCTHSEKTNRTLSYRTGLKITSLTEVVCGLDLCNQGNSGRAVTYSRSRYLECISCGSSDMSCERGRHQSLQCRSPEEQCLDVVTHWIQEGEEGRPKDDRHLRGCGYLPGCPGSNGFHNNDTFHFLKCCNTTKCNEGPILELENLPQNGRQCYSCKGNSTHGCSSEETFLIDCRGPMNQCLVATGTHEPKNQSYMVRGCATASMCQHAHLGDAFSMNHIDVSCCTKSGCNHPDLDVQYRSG
uPAR-lockV2 (SMB-GFD/hFc, disulphide-linked homodimer) (Fc fusion), sequence (chain): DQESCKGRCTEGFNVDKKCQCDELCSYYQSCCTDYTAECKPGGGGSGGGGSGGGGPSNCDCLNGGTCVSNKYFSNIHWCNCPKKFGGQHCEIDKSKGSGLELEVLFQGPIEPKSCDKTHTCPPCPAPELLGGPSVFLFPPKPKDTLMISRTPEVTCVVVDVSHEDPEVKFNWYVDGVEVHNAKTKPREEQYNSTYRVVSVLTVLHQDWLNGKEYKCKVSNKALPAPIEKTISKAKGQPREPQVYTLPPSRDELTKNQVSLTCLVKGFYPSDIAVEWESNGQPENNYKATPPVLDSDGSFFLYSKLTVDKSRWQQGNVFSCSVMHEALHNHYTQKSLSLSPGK

IC50, inhibition of 293/uPAR cell adhesion to VN(1-66)/Fc^RAD (RTCA impedance): 0.59 nM
Substance: uPAR-lockV2 (SMB-GFD/hFc, disulphide-linked homodimer) (Fc fusion)
